Data on 1 molecule can be found in article PMC2677881.

This data set concerns the target T1, NtbZIP (Nicotiana tabacum, UniProt Q4PKH1 1-400).
T1 sequence: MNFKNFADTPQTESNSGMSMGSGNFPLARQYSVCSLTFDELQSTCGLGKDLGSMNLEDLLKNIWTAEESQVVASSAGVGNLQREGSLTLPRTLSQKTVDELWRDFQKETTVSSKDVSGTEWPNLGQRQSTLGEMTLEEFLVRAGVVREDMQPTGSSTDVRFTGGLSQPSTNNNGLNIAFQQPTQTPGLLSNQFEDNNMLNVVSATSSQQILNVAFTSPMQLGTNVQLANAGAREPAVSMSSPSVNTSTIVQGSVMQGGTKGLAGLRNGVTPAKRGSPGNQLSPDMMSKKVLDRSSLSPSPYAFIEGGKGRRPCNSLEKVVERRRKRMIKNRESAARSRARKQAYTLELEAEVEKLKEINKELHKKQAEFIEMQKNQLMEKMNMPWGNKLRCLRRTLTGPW
The data set can be described thus: EMSA.

B1: 4x G-box of PNZIP promoter (dsDNA)
DNA 1: GCCACGTGTCGCCACGTGTCGCCACGTGTCGCCACGTGTC
DNA 2: GACACGTGGCGACACGTGGCGACACGTGGCGACACGTGGC
Take B1: the binding result is on record as “binds”.
